Results on one protein are retold here after article PMC6702220 (Communications Biology, 2019).

The series concerns the molecule itself. Description: crystal structure; hanging drop, 22 °C; 5 mg/ml PlsX, 1 mM 1-oxohexadecylphosphoramidic acid, 0.08 M Tris-HCl pH 8.0, 0.16 M Li2SO4, 21% PEG 4000, 0.012 mM CYMAL 7, 5% t-butanol; 2.30 Å; two subunits in the asymmetric unit.

As a reminder, the stoichiometry N is the number of molecules, sites or subunits per partner or assembly.

B1: Bacillus subtilis phosphate acyltransferase PlsX (enzyme, UniProt P71018 1-333, looked up)
chain: MRIAVDAMGGDHAPKAVIDGVIKGIEAFDDLHITLVGDKTTIESHLTTTSDRITVLHADEVIEPTDEPVRAVRRKKNSSMVLMAQEVAENRADACISAGNTGALMTAGLFIVGRIKGIDRPALAPTLPTVSGDGFLLLDVGANVDAKPEHLVQYAIMGSVYSQQVRGVTSPRVGLLNVGTEDKKGNELTKQTFQILKETANINFIGNVEARDLLDDVADVVVTDGFTGNVTLKTLEGSALSIFKMMRDVMTSTLTSKLAAAVLKPKLKEMKMKMEYSNYGGASLFGLKAPVIKAHGSSDSNAVFHAIRQAREMVSQNVAALIQEEVKEEKTDE
notes: Phosphate acyltransferase PlsX, Bacillus subtilis; plsX gene amplified from genomic DNA and inserted into pET28a between NcoI and XhoI; Crystallised with the product analog 1-oxohexadecylphosphoramidic acid (palmitoyl phosphoramide), which was not found in the solved structure; also called B. subtilis PlsX; recombinant PlsX; source: E. coli C43 (DE3), purified (HisTrap HP, gel filtration on …)
For B1, the “stoichiometry N” value amounted to 2.
